Assay results: patent US20210388110A1 (published 2021)
Residue numbers refer to the chain shown, from its start.

B1: GCH054-G1dh/none-Hi-Kn010G3/L0011-k0 (antibody, human IgG1, kappa)
heavy: not shown
chain: EPKSSDKTHTCPPCPAPELLGGPSVFLFPPKPKDTLMISRTPEVTCVVVDVSHEDPEVKFNWYVDGVEVHNAKTKPREEQYNSTYRVVSVLTVLHQDWLNGKEYKCKVSNKALPAPIEKTISKAKGQPREPQVCTLPPSRDELTKNQVSLWCLVKGFYPSDIAVEWESNGQPENNYKTTPPVLDSDGSFFLYSKLTVDKSRWQQGNVFSCSVMHEALHNRYTQKSLSLSP
light: DIVMTQSPLSLPVTPGEPASISCRSSQPLVHSNRNTYLHWYQQKPGQAPRLLIYKVSNRFSGVPDRFSGSGSGTDFTLKISRVEAEDVGVYYCGQGTQVPYTFGQGTKLEIKRTVAAPSVFIFPPSDEQLKSGTASVVCLLNNFYPREAKVQWKVDNALQSGNSQESVTEQDSKDSTYSLSSTLTLSKADYEKHKVYACEVTHQGLSSPVTKSFNRGEC
notes: single-arm antibody
B2: H0610-G1dh/none-Hi-kn010G3/L0137-k0 (antibody, human IgG1, kappa)
heavy: not shown
chain: B1 chain
light: B1 light with P28S, S61G
notes: single-arm antibody
B3: H0610-G1dh/none-Hi-Kn010G3/L0000-k0 (antibody, human IgG1, kappa)
heavy: not shown
chain: B1 chain
light: B1 light with P28S
notes: single-arm antibody
B4: GCH065-G1dh/none-Hi-Kn010G3/L0011-k0 (antibody, human IgG1, kappa)
heavy: not shown
chain: B1 chain
light: B1 light
notes: single-arm antibody
B5: GCH094-G1dh/none-Hi-Kn010G3/L0011-k0 (antibody, human IgG1, kappa)
heavy: not shown
chain: B1 chain
light: B1 light
notes: single-arm antibody

Target: T1, soluble human GPC3 (human, UniProt P51654 25-563, limits assumed)
T1 construct: also called glypican 3
T1 sequence (P51654 other isoform, or with tags, fused parts or gaps limits assumed, form in doubt): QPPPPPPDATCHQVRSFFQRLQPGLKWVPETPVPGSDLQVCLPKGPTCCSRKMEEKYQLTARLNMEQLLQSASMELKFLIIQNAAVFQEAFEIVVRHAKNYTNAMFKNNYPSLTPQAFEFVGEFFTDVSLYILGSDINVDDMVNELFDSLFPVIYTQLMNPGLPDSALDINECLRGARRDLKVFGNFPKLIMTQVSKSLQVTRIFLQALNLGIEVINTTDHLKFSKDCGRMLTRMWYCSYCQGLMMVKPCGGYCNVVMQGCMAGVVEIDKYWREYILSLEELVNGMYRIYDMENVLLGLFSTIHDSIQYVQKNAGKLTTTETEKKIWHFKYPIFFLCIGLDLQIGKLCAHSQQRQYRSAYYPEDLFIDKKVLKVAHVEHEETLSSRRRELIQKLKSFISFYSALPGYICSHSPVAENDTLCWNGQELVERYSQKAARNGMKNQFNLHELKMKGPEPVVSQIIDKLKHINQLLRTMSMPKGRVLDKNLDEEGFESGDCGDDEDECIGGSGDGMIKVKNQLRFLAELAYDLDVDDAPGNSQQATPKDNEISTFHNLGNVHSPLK
Experiment: SPR (Biacore), single-arm antibody, soluble human GPC3

B1 and B2 are within 1.5-fold of each other in Kd: 5.25 nM for the first, 5.87 nM for the second.

Target: T1, soluble human GPC3
Experiment: as above
Remark: another data set of the same source

B3 and B1 are within 1.5-fold of each other in Kd: 4.16 nM for the first, 5.25 nM for the second.

Compared with B4, B5 is 5.1-fold higher in Kd: 0.884 nM for the first, 4.54 nM for the second.
